These results are taken from publication PMC11701102, “Structural insights into the interplay between microtubule polymerases, γ-tubulin complexes and their receptors” (Nature Communications, 2025).

Data set [1] deals with the molecule itself. In words: cryo-EM structure; γ-TuSC/Spc72^1-599/FLAG-Stu2 complex purified via FLAG-Stu2; single particle analysis, γ-TuSC unit within oligomers at 3.6 Å, 14-spoked ring at 8.2 Å.
Data set [2] has as its target T1, γ-tubulin small complex (γ-TuSC) from C. albicans: His-Spc97, His-Spc98, γ-tubulin (Tub4) (C. albicans, UniProt Q59PZ2 1-871; A0A1D8PS42 1-785; O93807 1-502).
T1 construct: Spc97 (homologue of human GCP2), C. albicans; Spc98 (homologue of human GCP3), C. albicans; γ-tubulin (Tub4), C. albicans; For MST the purified γ-TuSC was labelled with an amine-reactive dye (GREEN-NHS kit); also called γ-TuSC unit; γ-TuRC (as ring of seven γ-TuSCs); source: Sf21 insect cells (baculovirus); copies: 1 + 1 + 2
Kind of data set: SEC; FLAG-purified γ-TuSC/His-Spc72^1-599/FLAG-Stu2 on Superose 6 Increase 10/300 in HB100 buffer (40 mM K-HEPES pH 7.4, 100 mM KCl); fractions by SDS-PAGE, Western blot and gel densitometry; ring-like oligomers also seen by negative stain EM. As to conditions: both partners purified.

B1: His-Spc72^1-599 (C. albicans), co-expressed in insect cells (domain or fragment, UniProt Q5AGV5 1-599, looked up)
chain: MSNLSINESNDNSNVSILSNKSGAQSSTNSSPNLIVFKQPEDLSIQLQQQQQGTQEDTPEEEEEEEEEMEQITQLEVQQENQPDTLSSSPFISRPNSPLDDIIRPQGTSSPSLTIRDSYSSQVDINISNLHKSLNEMRLSTDPVDNNNNNNKVNKNNPTNSDISNDDIITIDNLTPSRIQPKNISPWRQFRPTLRGSPESTPRSLFQNKPNLKFNNGLSPTNGSRDMVTNNIATTTKSREEELNKRIVNYKIQLKLMKNFLQELIDRNNLDPHEFHTLLRRNNNNIMNNENNPLSTSLSQTSTLEIQHQNLQIELDEALELNKQLYNKIETANKEISDKDLQISNYESRINLINYSVDELIYILINEYDKNNYSHGGSNTTSPGKETLQQSISAQLEVKLNVLKLELMTRLDQSHQYNNKPHDLFTPPYTSSEYGVSTNNVANKNDLEGYIHIIEDLIKTVDELELTCENYKANKNELQNQLVEQINESIRIKNNFQIMSNKFNQLRQSLSEKENDKNLDEFSKNNHQQQQQQQIQQLEQKLIEYEKCITILQDELDQYKQPSDTTNTTNNNNNNNNNNNRSSYSSYNNHRNSSLNELN
notes: Only the CM1 motif is resolved in the cryo-EM map, as a parallel dimeric coiled coil; source: Sf21 insect cells, MultiBac co-expression with γ-TuSC components and FLAG-Stu2 or His-GFP-Mzt1
Regarding B1, the results for the “stoichiometry N” value in data set [1] and in data set [2] were 2 and ~2 Spc72^1-599 per γ-TuSC (Spc97:Spc98:γ-tubulin:Spc72^1-599), respectively.
